T1: CDC2bAt protein in protein extract of A. thaliana Col-O cell suspension culture (Arabidopsis thaliana, UniProt P25859 1-309)
T1 construct: Endogenous protein in a crude extract
T1 sequence (looked up): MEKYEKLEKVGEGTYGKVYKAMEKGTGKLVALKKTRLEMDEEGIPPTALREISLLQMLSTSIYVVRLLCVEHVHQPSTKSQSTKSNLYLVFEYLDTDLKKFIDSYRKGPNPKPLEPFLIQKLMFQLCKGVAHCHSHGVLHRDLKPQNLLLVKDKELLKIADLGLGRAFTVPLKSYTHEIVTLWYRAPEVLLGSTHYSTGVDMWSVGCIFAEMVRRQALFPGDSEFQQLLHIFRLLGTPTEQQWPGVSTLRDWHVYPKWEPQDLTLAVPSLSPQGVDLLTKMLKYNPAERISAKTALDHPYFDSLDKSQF

B1: GAL4 activation domain-LDV159 fusion (pGADLDV159) (other, Arabidopsis thaliana, UniProt Q67Y93 1-191, looked up, not shown: large carriers)
chain: MVRKYRKAKGIVEAGVSSTYMQLRSRRIVYVRSEKSSSVSVVGDNGVSSSCSGSNEYKKKELIHLEEEDKDGDTETSTYRRGTKRKLFENLREEEKEELSKSMENYSSEFESAVKESLDCCCSGRKTMEETVTAEEEEKAKLMTEMPTESEIEDFFVEAEKQLKEKFKKKYNFDFEKEKPLEGRYEWVKLE
notes: also called ICK1
B2: GAL4 activation domain alone (pGAD424) (other, UniProt P04386 768-881, looked up)
chain: ANFNQSGNIADSSLSFTFTNSSNGPNLITTQTNSQALSQPIASSNVHDNFMNNEITASKIDDGNNSKPLSPGWTDQTAYNAFGITTGMFNTTTMDDVYNYLFDDEDTPPNPKKE
notes: Negative control prey in the two-hybrid retransformation
B3: Purified recombinant FL66 protein (E. coli, FL66pET21d), starting at methionine 11 (other)
chain: MEVSKATAPSPGVRTRAAKTLALKRLNSSAADSALPNDSSCYLQLRSRRLEKPSSLIEPKQPPRVHRSGIKESGSRSRVDSVNSVPVAQSSNEDECFDNFVSVQVSCGENSLGFESRHSTRESTPCNFVEDMEIMVTPGSSTRSMCRATKEYTREQDNVIPTTSEMEEFFAYAEQQQQRLFMEKYNFDIVNDIPLSGRYEWVQVKP
notes: also called FL66-Sepharose
B4: GAL4 activation domain-FL66 fusion (pGADFL66), FL66 starting at methionine 11 (other, not shown: large carriers)
chain: B3 chain
notes: the FL66 clone may not be full length; also called ICK3
B5: GAL4 activation domain-LDV66 fusion (pGADLDV66) (other, not shown: large carriers)
chain: VNSVPVAQSSNEDECFDNFVSVQVSCGENSLGFESRHSTRESTPCNFVEDMEIMVTPGSSTRSMCRATKEYTREQDNVIPTTSEMEEFFAYAEQQQQRLFMEKYNFDIVNDIPLSGRYEWVQVKP
notes: FL66 = ICK3
B6: GAL4 activation domain-FL39 fusion (pGADFL39) (other, not shown: large carriers)
chain: MAAVRRRERDVVEENGVTTTTVKRRKMEEEVDLVESRIILSPCVQATNRGGIVARNSAGASETSVVIVRRRDSPPVEEQCQIEEEDSSVSCCSTSEEKSKRRIEFVDLEENNGDDRETETSWIYDDLNKSEESMNMDSSSVAVEDVESRRRLRKSLHETVKEAELEDFFQVAEKDLRNKLLECSMKYNFDFEKDEPLGGGRYEWVKLNP
notes: also called ICK2; CKI2
B7: GAL4 activation domain-LDV39 fusion (pGADLDV39) (other, not shown: large carriers)
chain: RRDSPPVEEQCQIEEEDSSVSCCSTSEEKSKRRIEFVDLEENNGDDRETETSWIYDDLNKSEESMNMDSSSVAVEDVESRRRLRKSLHETVKEAELEDFFQVAEKDLRNKLLECSMKYNFDFEKDEPLGGGRYEWVKLNP
notes: FL39 = ICK2 = CKI2

Columns and labels:
[1] = target: GAL4 DNA-binding domain-CDC2bAt fusion (pGBTCDC2B) (Arabidopsis thaliana, UniProt P04386 1-147; P25859 1-309); experiment: yeast two-hybrid, growth without histidine
Experimental: (§1) The pGBTCDC2B vector encoding a fusion protein between the C-terminus of the GAL4 DNA-binding domain and CDC2bAt was constructed by cloning the full length coding region of CDC2bAt into the pGBT9 vector. pGBTCDC2B was transformed with pGADLDV66/pGADLDV39/pGADLDV159 in the HF7c yeast and cotransformants were plated on medium with or without histidine. As control, pGBTCDC2A was transformed with pGADLDV66/pGADLDV39/pGADLDV159. In contrast to the transformants containing the pGBTCDC2A vector were cotransformants containing the pGBTCDC2B vector unable to grow in the absence of histidine.

[2] = target: T2, GAL4 DNA-binding domain-CDC2aAt fusion (pGBTCDC2A bait) (Arabidopsis thaliana, UniProt P04386 1-147; P24100 1-294); experiment: yeast two-hybrid control, growth without histidine
T2 construct: Yeast two-hybrid bait; whole CDC2aAt coding region amplified from cDNA and cloned in the EcoRI site of pGBT9
From the text: (§2) The LDV159 clone was identical to ICK1 (GenBank accession number U94772 as published by Wang in Nature 386 (1997), 451–452). The two other clones were novel and encoded proteins only distantly related to ICK1 (Table 1). The LDV39 gene was 622 bp long, consisting of 423 bp coding region and 199 bp 3' UTR (excluding the poly-A tail). The LDV66 gene was 611 bp long, consisting of 379 bp coding region and 232 bp 3' UTR (excluding the poly-A tail). The specificity of the interaction between LDV39, LDV66, and LDV159 was verified by the retransformation of yeast with pGBTCDC2A and pGADLDV39/pGADLDV66/pGADLDV159. As controls, pGBTCDC2A was cotransformed with a vector containing only the GAL4 activation domain (pGAD424); and the pGADLDV39/pGADLDV66/pGADLDV159 vectors were cotransformed with a plasmid containing only the GAL4 DNA binding domain (pGBT9). Transformants were plated on medium with or without histidine. Only transformants containing both pGBTCDC2A and pGADLDV39, pGADLDV66, ot pGADLDV159 were able to grow in the absence of histidine.

[3] = target: T1, CDC2bAt protein in protein extract of …; experiment: pull-down from cell extract on FL66-Sepharose, Western blot
Experimental: The *Arabidopsis thaliana* CKI FL66 Associates Exclusively with CDC2aAt In Vitro Purified recombinant FL66 protein (prepared as described as in previous Example 6 was coupled to CNBr-activated Sepharose 4B (Pharmacia) at a concentration of 5 mg/ml of gel according to the manufacturer's instructions. Protein extracts were prepared from a 2-day-old cell suspension culture of *A. thaliana* Col-O in homogenisation buffer (HB) containing 50 mM Tris-HCl (pH 7.2), 60 mM β-glycerophosphate, 15 mM nitrophenyl phosphate, 15 mM EGTA, 15 mM MgCl_2, 2 mM dithiothreitol, 0.1 mM vanadate, 50 mM NaF, 20 µg/ml leupeptin, 20 µg/ml aprotinin, 20 µg/ml soybean trypsin inhibitor (SBTI), 100 µM benzamidine, 1 mM phenylmethylsulfonylfluoride, and 0.1% Triton X-100. Two-hundred µg protein extract in a total volume of 100 µl HB was loaded on 50 µl 50% (v/v) FL66-Sepharose or control Sepharose beads, and incubated on a rotating wheel for 2 h at 4° C. The unbound proteins were collected for later analysis. The beads-bound fractions were washed 3 times with HB. Beads were resuspended in 30 µl SDS-loading buffer and boiled. The supernatants (beads bound fractions) and 10 µl of the unbound fractions were separated on a 12.5% SDS-PAGE gel and electroblotted on nitrocellulose membrane (Hybond-C^+; Amersham). […]

[4] = target: T3, GAL4 DNA binding domain alone (pGBT9) (UniProt P04386 1-147); experiment: yeast two-hybrid control, growth without histidine
T3 construct: Negative control bait in the two-hybrid retransformation
From the text: as §2

[5] = target: T2, GAL4 DNA-binding domain-CDC2aAt fusion …; experiment: yeast two-hybrid, growth without histidine
Experimental: as §1

Row | Binder | binding result [1] | other results
1 | B1 | no binding | –
2 | B2 | – | binding result [2]: no binding
3 | B3 | – | binding result [3]: no binding
4 | B4 | no binding | –
5 | B5 | no binding | binding result [4]: no binding
6 | B6 | no binding | binding result [5]: binds
7 | B7 | no binding | binding result [4]: no binding
